According to US20210017277A1 (US Dept. of Health and Human Services, published 2021):

Biological target: T1, Biotinylated Human Siglec-3/CD33 Protein, Avi Tag (Acro Biosystems) (human, UniProt P20138 18-259, biotinylated (Avi Tag))
T1 construct: Bought reagent; also called biotinalated Siglec-3; not shown: Avi Tag
Experiment: flow cytometry: CAR-transduced T cells stained with biotinylated human Siglec-3/CD33 protein, then Streptavidin-PE
Experimental: Surface expression of CD33 CAR-transduced T cells was determined by flow cytometry using either protein-L (Themo Fisher) or a Biotinylated Human Siglec-3/CD33 Protein (Acro Biosystems, Newark, Del., USA) followed by incubation with Streptavidin-PE (BioLegend, San Diego, Calif., USA). CD123 CAR expression were detected with protein-L. Expression of CD33, CD123 and other cell surface markers were detected using the following antibodies from eBioscience (Thermo Fisher): CD33, CD45, CD3, CD8a, CD4, CD10.
For CD33 CAR detection with Biotinylated Human Siglec-3/CD33 Protein: CAR detection with: add 2 ul of Biotinylated Human Siglec-3/CD33 Protein, [Avi Tag (Avitag™) Acro Biosystems, Newark, Del., USA], incubate for 20 min, wash once and incubate with 0.5 μl of Streptavidin-PE, incubate for additional 10 min, wash once, subject for FACS analysis.

T1 sequence (P20138 18-259 limits assumed): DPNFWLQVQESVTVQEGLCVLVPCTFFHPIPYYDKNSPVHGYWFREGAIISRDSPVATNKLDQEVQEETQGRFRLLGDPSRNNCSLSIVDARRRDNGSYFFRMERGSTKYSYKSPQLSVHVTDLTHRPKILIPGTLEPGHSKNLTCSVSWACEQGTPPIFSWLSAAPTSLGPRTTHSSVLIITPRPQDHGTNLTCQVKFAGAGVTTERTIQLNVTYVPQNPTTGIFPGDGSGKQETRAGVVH

binding result: binds
B1: CD33Hu195-CD28Z CAR (other)
chain: QVQLVQSGAEVKKPGSSVKVSCKASGYTFTDYNMHWVRQAPGQGLEWIGYIYPYNGGTGYNQKFKSKATITADESTNTAYMELSSLRSEDTAVYYCARGRPAMDYWGQGTLVTVSSGGGGSGGGGSGGGGSDIQMTQSPSSLSASVGDRVTITCRASESVDNYGISFMNWFQQKPGKAPKLLIYAASNQGSGVPSRFSGSGSGTDFTLTISSLQPDDFATYYCQQSKEVPWTFGQGTKVEIKSGAAAIEVMYPPPYLDNEKSNGTIIHVKGKHLCPSPLFPGPSKPFWVLVVVGGVLACYSLLVTVAFIIFWVRSKRSRLLHSDYMNMTPRRPGPTRKHYQPYAPPRDFAAYRSRVKFSRSADAPAYQQGQNQLYNELNLGRREEYDVLDKRRGRDPEMGGKPRRKNPQEGLYNELQKDKMAEAYSEIGMKGERRRGKGHDGLYQGLSTATKDTYDALHMQALPPR
notes: CAR on the surface of transduced human T cells; also called CD33.2-28z; CD33.2-CD28z
